Assay results taken from patent US20140140926A1.
No end group written: not given here.

Key:
[1] = target: soluble hSIRP-alpha (human) (UniProt P78324); test: inhibition of soluble hSIRP-alpha binding to polypeptide beads by soluble peptide
[2] = target: soluble hSIRP-alpha (human) (UniProt P78324); test: flow cytometry, biotinylated peptide on streptavidin polystyrene beads binding soluble hSIRP-alpha, saturation binding fit

Ki [1] [nM] | Kd [2] [nM] | Binder
100 to 200 |  | EVTELTREGE (synthesized without attachment of biotin) [FG-hairpin (10-aa, …)]
 | 110 to 160 | GNYTCEVTELTREGETIIELK (also: biotin via aminohexanoic acid (C6) or PEG linker, site not given here) [FG-peptide (21-aa, …)]
